We go through 1 substance from patent US20250188130A1.

This experiment addresses E glycoprotein of DENV2-FL-Mature (fusion loop N103S and G106L), on virus (Dengue virus serotype 2, strain S16803 (engineered)) (UniProt P18356). Put plainly: cell-based or functional assay.

As to 1M7 (antibody), the neutralization (FRNT, EC50) (logs (reduction against DENV2)) amounted to 2.
